# Reference: the nanobody polyreactivity screen of Harvey et al. (2022)
# Experiment: yeast display, Sf9 membrane polyspecificity reagent, FACS + sequencing; frameworks hold sequencing errors
# Summary of the method: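 A nanobody's polyreactivity label depends on the gate it was sorted from. Yeast display cells were stained with 10% biotinylated, detergent-solubilized Sf9 membrane reagent for 1 hour at 4 °C, enriched on streptavidin microbeads and sorted by FACS. The low and high (top ~1%) gates were set on anti-HA fluorescence for expression and streptavidin fluorescence for reagent binding.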
row,Sequence,polyreactivity (PSR sort gate)
1,QVQLVESGGGLVQEGGSLRLSCAASGFILVNYAMGWYRQAPGKEREFVAAISGSGTRTYYADSVKGRFTISRDNAKNTVYLQMNSLKPEDTAVYYCAARVGYRKLYYYWGQGTQVTVSS,high polyreactivity
2,QVQLVESGGGLVQAGGSLRLICAASGYIFPYYAIGWYRQAPGKERELVAGITTDGSSTYYADSVKGRFTISRDNAKNTVYLQMPSLKPEDTAVYYCYGYPGYTWGWYDYWGQGTQVTVSS,low polyreactivity
3,QVQLVESGGGLVQAGGSLRLSCAASGSIFWWNAMGWYRQAPGKERELVAAINWSTGRTYYADSVKGRFTISRDNAKNTVYLQMNSLKPEDTAVYYCNADSKSSYYWYLWYNYWGQGTQVTVSS,low polyreactivity
4,QVQLVESGGGLVQAGGSLRLSCAASGITFGRYAMGWYREAPGKERELVAAISRRGGSTHYADSVKGRFTISRDNAKNTVYLQMNSLKPEDTAVYYCNASPYRYRPSEYDYWGQGTQVTVSS,high polyreactivity
5,QVQLVESGGGLVQAGGSLRLSCAASGRTFPLNAMGWFRQAPGKERELVAAITWSGGRTYYADSVKGRFTISRDNAKNTVYLQMNSLKPEDTAVYYCAAKRTTWKIQSGYDYWGQGTQVTVSS,low polyreactivity
6,QVQLVESGGGLVQAGGSLRLSCAASGSTSPRNAMGWYRQAPGKERELVAAISSGGRTNYADSVKGRFTISRDNAKNTVYLQMNSLKPEDTAVYYCAAEVQSTYWGQGTQVTVSS,low polyreactivity
7,QVQLVESGGGLVQAGGSLRLSCAASGSIFGAYVMGWYRQAPGKERELVAAISRSGASTYYADSVKGRFTISRDNAKNTVYLQMNSLKPEDTAVYYCAARDRQRVSYCYWGQGTQVTVSS,high polyreactivity
8,QVQLVESGGGLVQAGGSLRLSCADSGSTLYRYAMGWYRQAPGKERELVDAISSAGSTHYADSVKGRFTISRDNAKNTVYLQMNSLKPEDTAVYYCNAVRKTFDYNYWGQGTQVTVSS,high polyreactivity
9,QVQLVESGGGLVQAGGSLRLSCAASGLTFGIYDMGWYRQAPGKERELVAGIRWSGGDSTYYADSVKGRFTNSRDNAKNTVYLQMNSLKPEDTAVYYCAARLYRWGGGLSRDKHGYWGQGTQVTVSS,low polyreactivity
10,QVQLVESGGGLVQAGGSLRLSCAASGSIVYSYAMGWYRQAPGKERELVATISWSGGRTNYADSVKGRITISRDTAKNSVYLLMNSLKPVDTAVYYCAADIPPWGGDYWGQGTQVTVSS,low polyreactivity
11,QVQLVESGGGLVQAGGSLRLSCAASGRIFRYYAMGWYRQAPGKERELVARITWSGGRTYYADSVKGRFTISRDNAKNTVYLQMNSLKPEDTAVYYCNARATSGGDYWGQGTQVTVSS,high polyreactivity
12,QVQLVESGGGLVHAGGSLRLSCAASGSTSGIYAMGWYRQAPGKERELVAAIDTSGGSTYADSLKGRFTISRDNAKYTVYLQMNSLKPEDTAGYYCAKPFSSNSWSHGYWGQGTQVTVSS,low polyreactivity
13,QVQLVESGGGIVQAGGSLRLSCAASGRTIPPYGMGWYRQAPGKERELVAAISKSSGSTNYADSVKGRVTISRDNAKNTVYLQMNSLKPEDTAVYYCTKEWSIGPTGIRAYVRVWYYYWGQGTQVTVSS,low polyreactivity
14,QVQLVESGGGLVQAGGSLRLSCAASGRTFPGYAMGWYRQAPGKERELVATITGNGGSTYYADSVKGRFTISRDNAKNTVYLQMNSLKPEDTAVYYCAAGRRRPYVRAYRGTDYWGQGTQVTVSS,low polyreactivity
15,QVQLVESGGGLVQAGGSHRLSCAASGSIFYAYAMGWYRQAPGKERELVAAITGSGGRTYYADSVKGRFTISRDNAKNTVYLQMNSLKPEDTAVYYCNAYYYRGSSYGYWGQGTQVTVSS,high polyreactivity
16,QVQLVESGGGLVQARVSLRLICAASAIIIYDNAIGWYRQAPGKESEFVATINYSGDSTYYADSVKGRFTISRDNANNTVYLQMNSLKPEDTAVYYCATDGAWQYYWVYSHVYWGQGTQVTVSS,low polyreactivity
17,QVQLVESAGGLVQAGGSLRLSCAASGRTGVNAMGWYRQAPGKERGLVAAINTSVGRTYYADSVKGRFTISRDNAKNTVYLQMNSLKPEDTAVYYCNTDRLGAARYDYWGQGTQVTVSS,low polyreactivity
18,QVQLVESGGGLVQAGGSLRLSCAASGSIFFPYAMGWYRQAPGKEREFVAAITGSGTSTYYADSVKGRFTISRDNAKNTVYLQMNSLKPEDTAVYYCNAKRDRYFYTVKYDYWGQGTQVTVSS,low polyreactivity
19,QDQLVESRGGLVQAGGSLRLSCAASGSIFTVNAMGWYRQAPRKERELVASITWRSGSTYYPDSVKGRFTISRDNAKNSVYLQMNRLKPEDTAFYYCNADSDYPYYPGNFDYWGQGTQVTVSS,low polyreactivity
20,QVQLVESGGGLVQAGGSLRLSCAASGSIFGAYAMGWYRQAPGKERELVAAISSSVDRTYYADSVKGRFTNSRDNAKNTVYLQMNCLKPEDTAVYYCAARWGTRDRTKYYYWGQGTQVTVSS,high polyreactivity
21,QVQLVESGGGLVQAGGSLRLSCAASGGIFNYYAMGWYRQAPGKERELVAAMTSAGSTYADSVKGRFTISRDNATNTVSLQMNILKPEDTAVYYCNAVGVVVKFGYYLIGYAKWYDYWGQGSQVTVSS,low polyreactivity
22,QVQLVESGGGLVQAGGSLRLSCAASGFIFESNAMGWYRQAPGKERELVAAITKRGGSTYYADSVKGRFTISRDNAKNTVYLQMNSLKPEDTAVYYCARYSSRYSSGYDYWGQGTQVTVSS,high polyreactivity

row,Sequence,polyreactivity (PSR sort gate)
1,QVQLVESGGGLVQAGGSLRLSCAASGITFYGNAMGWYRQAPGKERELVAGISSGGSTSYADSVKGRFTISRDNAKNTVYLQMNSLKPEDTAVYYCAKRWYYGTRYGTSYIRDYWGQGTQVTVSS,high polyreactivity
2,QDQLVESGGGLVQAGGSLRLSCAASGSSFFSNAMGWYRPAPGKERELVAAITSTGGSTYYADSVKGRFTISRDHAKNTVYLQMNSLKPEDTAVYYCAAASRRGYYYWGQGTQVTVSS,high polyreactivity
3,QVQLVESGGGLVQAGGSLRLSCAASGGIFKRYAMGWYRQEPGKERELVAAISGRGGGTYYADSVKGRFTISRDNAKNTDYLQMNSLKPEDTAVYYCNARLSWSAFGYWGQGTQVTVSS,high polyreactivity
4,QVQLVESGGGLVQAGGSLRLSCAASGSIFWYYDMGWYRQAPGKERELVATISRTGRTYYADSVKGRFTISRDNAKNTVYLQMNSLKPEDTAVYYCAAVPRGWFSYPSGYDYWGQGTQVTVSS,high polyreactivity
5,QVQLVESGGGLVQAGGSLRLSCAASGYTFRWYVMGWYRQAPGKERELVAAISQSGGDTYYADSVKGRFTISRDNAKNTVYLQMNSLKPEDTAVYYCAVGRVGRFYYWGQGTQVTVSS,high polyreactivity
6,QAQLVESGGGLVQEGGSLRLSCAASGSIFYGYAMGWSRQAPGKERELVATIRFITGSTYYADSVKGRFTISRDNAKNTVYLQMNSLKPEDTAVYYCAAVYVGYYDNYDYWGQGTQVTVSS,low polyreactivity
7,QVQLVESGGGLVQAGGSLRLSCAASGFIFRNYAMGWYRQAPGKERELVASISRGTSTNYADSVKGRFTISRDNAKNTVDLQMNSLKPEDTAVYYCAVGRYPYGSARYGFDYWGQGTQVSVSS,high polyreactivity
8,QVQHVETGGGLVQAGGSLRLSCAATGYTLYRYPMGWYRQAPGKERELVARISYRTGSTYYADSVKGRFTISRDKAKNTVYLQMNSLKPEDTAVYYCAKYPGISGYKYWGQGTQVTVSS,high polyreactivity
9,QVQLVESGGGLVQAGGSLRLSCAASGRIFDYNAMGWYRQAPGKERELVAAISSRGGRTYYADSVKGRFTISRDNAKNTVYLQMNSLKPEDTAVYYCNTGWATDADDYWGQGTQVTVSS,high polyreactivity
10,QVQLVESGGGLVQAGGSLRLSCAASGSIFPRNTMGWYRQAPGKERELVAAMSSGASTYYADSVKGRFTISRDNAKNTVYLQMNSLKPEDTAVYYCAKRYQDTSPKDGENEYWGQGTQVTVSS,low polyreactivity
11,QVQLVESGGGLVQAGGSLRLSCAASGSTFGGNVMGWYRPAPGKERELVATISRSGGSTYYADSVKGRFTISRDNAKNTVYLQMNSLKPEDTAVYYCAARTLHYSPSTFYRYQYDYWGQGTQVTVSS,high polyreactivity
12,QVQLVESGGGLVQAGGSLRLSCAASGFTFRTYAMGWYRQAPGKVRELVAAITVSGGTYYADSVKGRFTISRDNAKNTVYLQMNSLKPEDTAVYYCTAKRFRTGLDYWGQGTQVTVSS,low polyreactivity
13,QVQLVESGGGLVQAGGSLRLSCAASGSIFGSYAMGWYRQAPGKERALVAAMSRSGITYYADSVKGRFTISRDNAKNTVYLQMNSLKPEDTAVYYCNADVSWWGYHYDYWGQGTQVTVLS,high polyreactivity
14,QVQLVESGGGIVQAGGSLRLSSAASGFTFDSNAMGWYRQPPGKERELVAAISASGDSTYYADSVKGRFTISRDNAKNTVYLQMNSLKPEDTAVYYCAADSYYGGWRFDHWGQGTQVTVSS,low polyreactivity
15,QVQLVESGGGLDQAGGSLRLSCAASGRIFTYNAMGWYRPAPGKERELVAVISRRGGSTYYADSVKGRFTISRDNAKNTVYLQMNSLKPEDTAVYYCAAGGSVFYDNRYDYWGQGTQVTVSS,low polyreactivity
16,QVQLVESGGGLVQAGGSLRLSCAASGSTMGRYAMGWYRQAPGKERELVASITWSDDSTYYADSVKGRFTISRDNAKNTVYLQMNSLKPEDTAVYYCAAAGNLYTYRFYYWGQGTQVTVSS,low polyreactivity
17,QDQLVESGGGLVQAGVSLRLSCAASGSIFNRNAMGWYRQAPGKERELVADISWSGGSTYYADSVKGRFTISRDNAKNTVYLQMNSLKPEDTAVYYCADKSTGRWWRAGYDYWGQGTQVTVSS,high polyreactivity
18,QVQLVESGGGLVQAGGSLRLSCAASGSTFVRNAMGWYRQAPGKERELVAGISTGDNTYYADSVKGRFTISRDNAKNTVNLQMNSLKPEDTAVYYCAARGLPSNYYYYVHGYIMDYWGQGTQVTVSS,low polyreactivity
19,QVQIVESRGGLVQAGGSLRLSCSASGRTFTYYAMGWYRQAPGKERELVASITSGGSTYADSVKGRFTISRDNAMNTVYLQMNSLKPEDTAVYYCAARAWGYRYKYYWGQGTLVTVSS,high polyreactivity
20,QVQLVESGGGLVQAGGSLRLSCAASGSTFYYYAMGWYRPAPGKERELVAAISSSGGITYYADSVKGRFTISRDNAKNTVYLQMNSLKPEDTAVYYCAADVIVFYYGPNYWGDIGYGYWGQGTQVTVSS,low polyreactivity
21,QVQLVESGGGLVQAGGSLRLSCAASGFFFGFYAMGWYRQAPGKERELVASISGRGGRTSYADSVKGRFTISRDNAKITVYLQMNSLKPEDTAVYYCNKAGYGVSRKYDYWGQGTQVTVSS,high polyreactivity
